Test results taken from publication PMC8931054, “Structure-guided unlocking of NaX reveals a non-selective tetrodotoxin-sensitive cation channel” (Nature Communications, 2022).

Target: T1, human NaX channel (human, UniProt Q01118 1-1682)
T1 construct: Full-length human NaX (sodium channel protein type 7 subunit alpha, gene SCN7A), cloned into a pRK vector behind a CMV promoter; Co-expressed and co-purified with untagged β3; No removal of the tags is described; also called SCN7A; source: Expi293 cells, co-transfected with β3, purified (anti-FLAG M2 agarose, Strep-Tactin XT, Superose 6); not shown: 2xStrepII, N-terminal, kept; 2xFLAG, …
Assay: cryo-EM structure; β3-NaX complex co-expressed in Expi293, purified in GDN by the tags on NaX, reconstituted into POPC:POPE:POPG nanodiscs (MSP1E3D1); 25 mM HEPES pH 7.0, 200 mM NaCl; cross-linked with 0.05% glutaraldehyde before vitrification
Conditions: both partners purified

T1 sequence (Q01118 whole entry): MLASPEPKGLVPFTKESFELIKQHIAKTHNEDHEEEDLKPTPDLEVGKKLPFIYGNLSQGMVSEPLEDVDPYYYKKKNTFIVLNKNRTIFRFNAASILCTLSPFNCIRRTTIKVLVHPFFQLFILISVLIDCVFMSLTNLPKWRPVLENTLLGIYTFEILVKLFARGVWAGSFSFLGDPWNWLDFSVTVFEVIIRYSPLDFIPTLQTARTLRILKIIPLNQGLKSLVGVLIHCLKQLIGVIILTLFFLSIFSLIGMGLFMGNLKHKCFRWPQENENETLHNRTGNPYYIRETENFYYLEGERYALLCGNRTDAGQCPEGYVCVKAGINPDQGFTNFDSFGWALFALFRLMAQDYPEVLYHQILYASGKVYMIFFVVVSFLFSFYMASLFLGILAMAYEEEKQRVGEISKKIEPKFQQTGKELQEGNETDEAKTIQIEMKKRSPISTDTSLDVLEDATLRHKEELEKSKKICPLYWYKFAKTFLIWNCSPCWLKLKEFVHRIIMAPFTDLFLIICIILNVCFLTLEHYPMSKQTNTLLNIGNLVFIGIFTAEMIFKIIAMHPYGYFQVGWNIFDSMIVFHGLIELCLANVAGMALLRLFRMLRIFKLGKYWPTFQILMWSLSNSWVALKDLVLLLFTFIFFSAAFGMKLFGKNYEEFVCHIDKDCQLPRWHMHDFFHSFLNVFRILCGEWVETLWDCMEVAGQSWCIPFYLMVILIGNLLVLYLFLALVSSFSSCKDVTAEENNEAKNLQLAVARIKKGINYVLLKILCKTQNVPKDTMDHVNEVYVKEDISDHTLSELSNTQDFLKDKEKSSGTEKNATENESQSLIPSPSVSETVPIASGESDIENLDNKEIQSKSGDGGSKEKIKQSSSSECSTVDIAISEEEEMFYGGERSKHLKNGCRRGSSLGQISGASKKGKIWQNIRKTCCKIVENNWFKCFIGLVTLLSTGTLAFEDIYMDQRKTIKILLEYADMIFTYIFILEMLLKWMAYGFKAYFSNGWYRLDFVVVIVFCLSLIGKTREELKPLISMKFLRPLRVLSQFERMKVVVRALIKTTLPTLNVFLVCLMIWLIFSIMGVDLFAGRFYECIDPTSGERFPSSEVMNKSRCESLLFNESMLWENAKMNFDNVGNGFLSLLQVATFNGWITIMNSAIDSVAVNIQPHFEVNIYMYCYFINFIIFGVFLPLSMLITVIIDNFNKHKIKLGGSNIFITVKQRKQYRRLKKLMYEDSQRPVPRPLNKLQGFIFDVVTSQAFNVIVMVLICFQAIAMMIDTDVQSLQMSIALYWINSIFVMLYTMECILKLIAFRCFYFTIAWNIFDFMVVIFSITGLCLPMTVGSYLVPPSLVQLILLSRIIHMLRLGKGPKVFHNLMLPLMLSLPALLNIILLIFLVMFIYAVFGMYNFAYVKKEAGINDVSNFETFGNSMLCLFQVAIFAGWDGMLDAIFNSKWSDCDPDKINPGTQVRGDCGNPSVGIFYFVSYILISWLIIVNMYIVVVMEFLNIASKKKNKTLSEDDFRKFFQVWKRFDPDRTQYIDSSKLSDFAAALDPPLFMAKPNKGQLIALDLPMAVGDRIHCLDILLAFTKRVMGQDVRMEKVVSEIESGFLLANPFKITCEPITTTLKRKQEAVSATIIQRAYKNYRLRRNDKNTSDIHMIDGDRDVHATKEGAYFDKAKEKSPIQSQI

B1: human β3-subunit (auxiliary NaV channel β3) (natural protein, UniProt Q9NY72 23-215, looked up)
chain: FPVCVEVPSETEAVQGNPMKLRCISCMKREEVEATTVVEWFYRPEGGKDFLIYEYRNGHQEVESPFQGRLQWNGSKDLQDVSITVLNVTLNDSGLYTCNVSREFEFEAHRPFVKTTRLIPLRVTEEAGEDFTSVVSEIMMYILLVFLTLWLLIEMIYCYRKVSKAEEAAQENASDYLAIPSENKENSAVPVEE
notes: Untagged full-length human sodium channel auxiliary β3-subunit, cloned into a pRK vector behind a CMV promoter; The full-length cDNA was expressed; also called NaVβ3; source: Expi293 cells, co-transfected with NaX, co-purified with tagged NaX
B1: binds.
